The numbers were not newly measured in US20200216492A1, “USE OF C-TERMINALLY EXTENDED PEPTIDES TO DISRUPT INHIBITOR NK CELL RECEPTOR INTERACTIONS WITH MHC I” (La Jolla Institute for Allergy and Immunology, priority 2016, published 2020), which cites them from elsewhere.

The target in this data set is HLA-B*57:01 (Homo sapiens, UniProt P01889, D201E/D98Y/E176V/E187L/E204Q/E69M/E70A/G107R/I90N/K202T/L105A/L119I/N104I/N87E/Q89R/Q94S/R106L/R155S/R180L/R86G/S101N/S121V/S35A/S48A/T118I/V36M/Y140S/Y91M). As to conditions: previously determined; read-out: binding affinity KD to HLA-B*57:01.

B1: KIR3DL1: inhibitory killer immunoglobulin receptor on NK cells binding HLA-B*57:01 (protein, UniProt P43629 22-444, looked up)
Killer cell …: HMGGQDKPFLSAWPSAVVPRGGHVTLRCHYRHRFNNFMLYKEDRIHIPIFHGRIFQESFNMSPVTTAHAGNYTCRGSHPHSPTGWSAPSNPVVIMVTGNHRKPSLLAHPGPLVKSGERVILQCWSDIMFEHFFLHKEGISKDPSRLVGQIHDGVSKANFSIGPMMLALAGTYRCYGSVTHTPYQLSAPSDPLDIVVTGPYEKPSLSAQPGPKVQAGESVTLSCSSRSSYDMYHLSREGGAHERRLPAVRKVNRTFQADFPLGPATHGGTYRCFGSFRHSPYEWSDPSDPLLVSVTGNPSSSWPSPTEPSSKSGNPRHLHILIGTSVVIILFILLLFFLLHLWCSNKKNAAVMDQEPAGNRTANSEDSDEQDPEEVTYAQLDHCVFTQRKITRPSQRPKTPPTDTILYTELPNAKPRSKVVSCP
On to B1, for which the Kd was 17 µM.
